± gives the standard deviation of the averaged measurements.
Assay: total protein half-life in vivo (active degradation + dilution); higher = more stable protein
[1] = E. coli NCM3722 delta-smpB, growth: N-lim chemostat, doubling time 6 h
[2] = wild type E. coli NCM3722, growth: C-lim chemostat, doubling time 3 h
[3] = E. coli NCM3722 delta-clpP delta-lon delta-hslV, growth: N-lim chemostat, doubling time 6 h
[4] = E. coli NCM3722 delta-clpP, growth: N-lim chemostat, doubling time 6 h
[5] = E. coli NCM3722 delta-hslV, growth: N-lim chemostat, doubling time 6 h
[6] = E. coli NCM3722 delta-lon, growth: N-lim chemostat, doubling time 6 h
[7] = wild type E. coli NCM3722, growth: C-lim chemostat, doubling time 6 h
[8] = wild type E. coli NCM3722, growth: C-lim chemostat, doubling time 12 h
[9] = wild type E. coli NCM3722, growth: N-lim chemostat, doubling time 6 h
[10] = wild type E. coli NCM3722, growth: N-lim chemostat, doubling time 12 h
[11] = wild type E. coli NCM3722, growth: P-lim chemostat, doubling time 6 h
[12] = wild type E. coli NCM3722, growth: P-lim chemostat, doubling time 12 h

Sequence	total protein half-life in vivo [1]	total protein half-life in vivo [2]	total protein half-life in vivo [3]	total protein half-life in vivo [4]	total protein half-life in vivo [5]	total protein half-life in vivo [6]	total protein half-life in vivo [7]	total protein half-life in vivo [8]	total protein half-life in vivo [9]	total protein half-life in vivo [10]	total protein half-life in vivo [11]	total protein half-life in vivo [12]
MPLIIVVAGIALLLLLTIKIKLNTFVSLIIVSIAVAIASGMDLSKVVTSVESGLGGTLGHIGLIFGFGVMLGRLLADAGGAQRIALTMLNYFGKNKLDWAVVCSAFIVGIALFFEVGLILLVPILFAIAREAKISPMFMCVPMLSGLLVAHGFLPPHPGPTVIAREYGADVGLVLIYGIIVGIPTFILCGPVLNKFCQRIIPDAFKKEGNIASLGATRRFSESEMPGFGISFLTAMLPVILMAVVTIIQMTHAKSAADSGLFYNVILFLGNSTIAMLISLLFAIYTMGLGRGKTIPDLMDSCGKAIAGIAGLLLIIGGGGAFKQVLIDSGVGQYISTLVSGMDINPILMAWGVAAFLRICLGSATVAAISTAGLVIPLLAVHPNTNLALITLATGAGSCICSHVNDASFWMIKDFFGLTTKETLLSWTLMSTLLSISGLIFILLASLVL	6.77 h	3.22 h	–	–	–	–	–	–	–	–	–	–
MPLLDIRNLTIEFKTGDEWVKAVDRVSMTLTEGEIRGLVGESGSGKSLIAKAICGVNKDNWRVTADRMRFDDIDLLRLSARERRKLVGHNVSMIFQEPQSCLDPSERVGRQLMQNIPAWTYKGRWWQRFGWRKRRAIELLHRVGIKDHKDAMRSFPYELTEGECQKVMIAIALANQPRLLIADEPTNSMEPTTQAQIFRLLTRLNQNSNTTILLISHDLQMLSQWADKINVLYCGQTVETAPSKELVTMPHHPYTQALIRAIPDFGSAMPHKSRLNTLPGAIPLLEQLPIGCRLGPRCPYAQRECIVTPRLTGAKNHLYACHFPLNMEKE [P0AAH4]	5.11 ± 0.24 h	2.86 ± 0.12 h	6.47 ± 1 h	5.65 ± 0.24 h	5.68 ± 0.59 h	5.96 ± 0.44 h	5.52 ± 0.2 h	11.19 ± 0.067 h	5.58 ± 0.23 h	10.5 ± 0.24 h	5.43 ± 0.13 h	10.9 ± 0.29 h
MPLLHLLRQNPVIAAVKDNASLQLAIDSECQFISVLYGNICTISNIVKKIKNAGKYAFIHVDLLEGASNKEVVIQFLKLVTEADGIISTKASMLKAARAEGFFCIHRLFIVDSISFHNIDKQVAQSNPDCIEILPGCMPKVLGWVTEKIRQPLIAGGLVCDEEDARNAINAGVVALSTTNTGVWTLAKKLL	3.74 h	2.77 ± 0.24 h	–	–	–	–	4.77 ± 0.7 h	12.1 ± 1.7 h	–	–	–	8.94 h
MPLLKLWAGSLVMLAAVSLPLQAASPVKVGSKIDTEGALLGNIILQVLESHGVPTVNKVQLGTTPVVRGAITSGELDIYPEYTGNGAFFFKDENDAAWKNAQQGYEKVKKLDSEHNKLIWLTPAPANNTWTIAVRQDVAEKNKLTSLADLSRYLQEGGTFKLAASAEFIERADALPAFEKAYGFKLGQDQLLSLAGGDTAVTIKAAAQQTSGVNAAMAYGTDGPVAALGLQTLSDPQGVQPIYAPAPVVRESVLREYPQMAQWLQPVFASLDAKTLQQLNASIAVEGLDAKKVAADYLKQKGWTK	5.47 ± 0.21 h	3.08 ± 0.17 h	4.32 ± 0.22 h	5 ± 0.74 h	6.28 ± 0.2 h	7.16 ± 0.13 h	5.7 ± 0.057 h	9.88 ± 1.8 h	5.95 ± 0.34 h	12 ± 0.96 h	6.08 ± 0.75 h	12 ± 0.14 h
MPLPDFRLIRLLPLAALVLTACSVTTPKGPGKSPDSPQWRQHQQDVRNLNQYQTRGAFAYISDQQKVYARFFWQQTGQDRYRLLLTNPLGSTELELNAQPGNVQLVDNKGQRYTADDAEEMIGKLTGMPIPLNSLRQWILGLPGDATDYKLDDQYRLSEITYSQNGKNWKVVYGGYDTKTQPAMPANMELTDGGQRIKLKMDNWIVK	6.06 ± 0.35 h	3.18 ± 0.06 h	5.8 ± 0.1 h	6.43 ± 0.19 h	–	–	6.24 ± 0.15 h	11.8 ± 0.91 h	6.37 ± 0.46 h	13.22 ± 0.027 h	6.17 ± 0.18 h	13.7 ± 0.68 h
MPLRRFSPGLKAQFAFGMVFLFVQPDASAADISAQQIGGVIIPQAFSQALQDGMSVPLYIHLAGSQGRQDDQRIGSAFIWLDDGQLRIRKIQLEESEDNASVSEQTRQQLMALANAPFNEALTIPLTDNAQLDLSLRQLLLQLVVKREALGTVLRSRSEDIGQSSVNTLSSNLSYNLGVYNNQLRNGGSNTSSYLSLNNVTALREHHVVLDGSLYGIGSGQQDSELYKAMYERDFAGHRFAGGMLDTWNLQSLGPMTAISAGKIYGLSWGNQASSTIFDSSQSATPVIAFLPAAGEVHLTRDGRLLSVQNFTMGNHEVDTRGLPYGIYDVEVEVIVNGRVISKRTQRVNKLFSRGRGVGAPLAWQVWGGSFHMDRWSENGKKTRPAKESWLAGASTSGSLSTLSWAATGYGYDNQAVGETRLTLPLGGAINVNLQNMLASDSSWSSIGSISATLPGGFSSLWVNQEKTRIGNQLRRSDADNRAIGGTLNLNSLWSKLGTFSISYNDDRRYNSHYYTADYYQNVYSGTFGSLGLRAGIQRYNNGDSNANTGKYIALDLSLPLGNWFSAGMTHQNGYTMANLSARKQFDEGTIRTVGANLSRAISGDTGDDKTLSGGAYAQFDARYASGTLNVNSAADGYVNTNLTANGSVGWQGKNIAASGRTDGNAGVIFNTGLEDDGQISAKINGRIFPLNGKRNYLPLSPYGRYEVELQNSKNSLDSYDIVSGRKSRLTLYPGNVAVIEPEVKQMVTVSGRIRAEDGTLLANARINNHIGRTRTDENGEFVMDVDKKYPTIDFRYSGNKTCEVALELNQARGAVWVGDVVCSGLSSWAAVTQTGEENES	–	2.91 h	–	–	–	–	–	–	–	–	–	–
MPLVIVAIGVILLLLLMIRFKMNGFIALVLVALAVGLMQGMPLDKVIGSIKAGVGGTLGSLALIMGFGAMLGKMLADCGGAQRIATTLIAKFGKKHIQWAVVLTGFTVGFALFYEVGFVLMLPLVFTIAASANIPLLYVGVPMAAALSVTHGFLPPHPGPTAIATIFNADMGKTLLYGTILAIPTVILAGPVYARVLKGIDKPIPEGLYSAKTFSEEEMPSFGVSVWTSLVPVVLMAMRAIAEMILPKGHAFLPVAEFLGDPVMATLIAVLIAMFTFGLNRGRSMDQINDTLVSSIKIIAMMLLIIGGGGAFKQVLVDSGVDKYIASMMHETNISPLLMAWSIAAVLRIALGSATVAAITAGGIAAPLIATTGVSPELMVIAVGSGSVIFSHVNDPGFWLFKEYFNLTIGETIKSWSMLETIISVCGLVGCLLLNMVI	6.06 ± 0.3 h	–	–	6.71 ± 1 h	5.83 ± 0.38 h	6.2 ± 0.55 h	–	10 ± 0.67 h	5.75 h	13 h	–	–
MPPRALLLVDLQNDFCAGGALAVPEGDSTVDVANRLIDWCQSRGEAVIASQDWHPANHGSFASQHGVEPYTPGQLDGLPQTFWPDHCVQNSEGAQLHPLLHQKAIAAVFHKGENPLVDSYSAFFDNGRRQKTSLDDWLRDHEIDELIVMGLATDYCVKFTVLDALQLGYKVNVITDGCRGVNIQPQDSAHAFMEMSAAGATLYTLADWEETQG	3.78 ± 0.19 h	3.05 ± 0.12 h	4.67 ± 0.11 h	3.93 ± 0.17 h	–	4.52 ± 1.1 h	6.27 ± 1.3 h	10.1 ± 0.99 h	4.16 ± 0.32 h	6.53 h	4.76 h	11.1 ± 0.22 h

Reference: the supplement of paper PMC11246515
